# Starred links: 1 amine or outer side, 2 acyl side, 3 side chain; linkers in the order of their positions; H or OH if unused. Positions of bridges follow the written chain, without caps; N, C: chain ends. Non-standard residues stand in square brackets, D forms with d. Groups on a side chain read outwards from the residue. Primed or numbered codes have the meaning given here. *: point of attachment. APAc″ = 2-(4-(amino)piperidin-1-yl)acetic acid, NC1CCN(CC(=O)*)CC1; DOTA = O=C(O)CN1CCN(CC(=O)O)CCN(CC(=O)*)CCN(CC(=O)O)CC1; mXylylene = c1cc(C[*:1])cc(C[*:2])c1; tBuAla = CC(C)(C)C[C@H](N)C(=O)O; Aic = NC1(C(=O)O)Cc2ccccc2C1; Pen = CC(C)(S)[C@H](N)C(=O)O; Propanoyl(3-OH) = O=C(CCO)*; 4Amb = NCc1ccc(C(=O)O)cc1; Isovaleryl = CC(C)CC(=O)*; Ac6c = NC1(C(=O)O)CCCCC1; APAc = not defined here; Ac5c = NC1(C(=O)O)CCCC1; Thp = NC1(C(=O)O)CCOCC1; Apr = not defined here; AEEA = NCCOCCOCC(=O)O; Nlys = NCCCCNCC(=O)O; Sar = CNCC(=O)O
# B1: 3BP-3493 (peptide)
# peptide: Ac-VYCE[dP]DW[tBuAla]TWA[Pen]-NH2
# modifications: linker 3-12 via mXylylene
# SMILES: CC(=O)N[C@H](C(=O)N[C@@H](Cc1ccc(O)cc1)C(=O)N[C@H]1CSCc2cccc(c2)CSC(C)(C)[C@@H](C(N)=O)NC(=O)[C@H](C)NC(=O)[C@H](Cc2c[nH]c3ccccc23)NC(=O)[C@H]([C@@H](C)O)NC(=O)[C@H](CC(C)(C)C)NC(=O)[C@H](Cc2c[nH]c3ccccc23)NC(=O)[C@H](CC(=O)O)NC(=O)[C@H]2CCCN2C(=O)[C@H](CCC(=O)O)NC1=O)C(C)C
# notes: also called Ac-Val-Tyr-[Cys(3MeBn)-Glu-pro-Asp-Trp-Npg-Thr-Trp-Ala-Pen]-NH2
# B2: 3BP-3501 (peptide)
# peptide: Ac-VYCE[Sar]DW[tBuAla]TWA[Pen]-NH2
# modifications: linker 3-12 via mXylylene
# SMILES: CC(=O)N[C@H](C(=O)N[C@@H](Cc1ccc(O)cc1)C(=O)N[C@H]1CSCc2cccc(c2)CSC(C)(C)[C@@H](C(N)=O)NC(=O)[C@H](C)NC(=O)[C@H](Cc2c[nH]c3ccccc23)NC(=O)[C@H]([C@@H](C)O)NC(=O)[C@H](CC(C)(C)C)NC(=O)[C@H](Cc2c[nH]c3ccccc23)NC(=O)[C@H](CC(=O)O)NC(=O)CN(C)C(=O)[C@H](CCC(=O)O)NC1=O)C(C)C
# notes: also called Ac-Val-Tyr-[Cys(3MeBn)-Glu-Nmg-Asp-Trp-Npg-Thr-Trp-Ala-Pen]-NH2
# B3: 3BP-3474 (peptide)
# peptide: Ac-VYCE[dP]DWLTWAC[AEEA]K(DOTA)-NH2
# modifications: linker 3-12 via mXylylene
# SMILES: CC(=O)N[C@H](C(=O)N[C@@H](Cc1ccc(O)cc1)C(=O)N[C@H]1CSCc2cccc(c2)CSC[C@@H](C(=O)NCCOCCOCC(=O)N[C@@H](CCCCNC(=O)CN2CCN(CC(=O)O)CCN(CC(=O)O)CCN(CC(=O)O)CC2)C(N)=O)NC(=O)[C@H](C)NC(=O)[C@H](Cc2c[nH]c3ccccc23)NC(=O)[C@H]([C@@H](C)O)NC(=O)[C@H](CC(C)C)NC(=O)[C@H](Cc2c[nH]c3ccccc23)NC(=O)[C@H](CC(=O)O)NC(=O)[C@H]2CCCN2C(=O)[C@H](CCC(=O)O)NC1=O)C(C)C
# notes: also called Ac-Val-Tyr-[Cys(3MeBn)-Glu-pro-Asp-Trp-Leu-Thr-Trp-Ala-Cys]-O2Oc-Lys(DOTA)-NH2
# B4: 3BP-3477 (peptide)
# peptide: Ac-VYCE[dP]DWLTWAC[4Amb]K(DOTA)-NH2
# modifications: linker 3-12 via mXylylene
# SMILES: CC(=O)N[C@H](C(=O)N[C@@H](Cc1ccc(O)cc1)C(=O)N[C@H]1CSCc2cccc(c2)CSC[C@@H](C(=O)NCc2ccc(C(=O)N[C@@H](CCCCNC(=O)CN3CCN(CC(=O)O)CCN(CC(=O)O)CCN(CC(=O)O)CC3)C(N)=O)cc2)NC(=O)[C@H](C)NC(=O)[C@H](Cc2c[nH]c3ccccc23)NC(=O)[C@H]([C@@H](C)O)NC(=O)[C@H](CC(C)C)NC(=O)[C@H](Cc2c[nH]c3ccccc23)NC(=O)[C@H](CC(=O)O)NC(=O)[C@H]2CCCN2C(=O)[C@H](CCC(=O)O)NC1=O)C(C)C
# notes: also called Ac-Val-Tyr-[Cys(3MeBn)-Glu-pro-Asp-Trp-Leu-Thr-Trp-Ala-Cys]-Pamb-Lys(DOTA)-NH2
# B5: 3BP-3562 (peptide)
# peptide: Ac-VYCE[Nlys](DOTA)DWLTWAC-NH2
# modifications: linker 3-12 via mXylylene
# notes: also called Ac-Val-Tyr-[Cys(3MeBn)-Glu-Nlys(DOTA)-Asp-Trp-Leu-Thr-Trp-Ala-Cys]-NH2
# B6: 3BP-3492 (peptide)
# peptide: Ac-VYCE[dP]DWLTWA[Pen]-NH2
# modifications: linker 3-12 via mXylylene
# SMILES: CC(=O)N[C@H](C(=O)N[C@@H](Cc1ccc(O)cc1)C(=O)N[C@H]1CSCc2cccc(c2)CSC(C)(C)[C@@H](C(N)=O)NC(=O)[C@H](C)NC(=O)[C@H](Cc2c[nH]c3ccccc23)NC(=O)[C@H]([C@@H](C)O)NC(=O)[C@H](CC(C)C)NC(=O)[C@H](Cc2c[nH]c3ccccc23)NC(=O)[C@H](CC(=O)O)NC(=O)[C@H]2CCCN2C(=O)[C@H](CCC(=O)O)NC1=O)C(C)C
# notes: also called Ac-Val-Tyr-[Cys(3MeBn)-Glu-pro-Asp-Trp-Leu-Thr-Trp-Ala-Pen]-NH2
# B7: 3BP-3586 (peptide)
# peptide: {DOTA-APAc}-VYCE[dP]DW[Aic]TWSC-NH2
# modifications: linker 3-12 via mXylylene; reading uncertain
# notes: also called DOTA-APAc-Val-Tyr-[Cys(3MeBn)-Glu-pro-Asp-Trp-Aic-Thr-Trp-Ser-Cys]-NH2
# B8: 3BP-3587 (peptide)
# peptide: {DOTA-APAc}-VYCE[dP]DW[Ac5c]TWSC-NH2
# modifications: linker 3-12 via mXylylene; reading uncertain
# notes: also called DOTA-APAc-Val-Tyr-[Cys(3MeBn)-Glu-pro-Asp-Trp-Eca-Thr-Trp-Ser-Cys]-NH2
# B9: 3BP-3858 (peptide)
# peptide: {DOTA-APAc″}-CE[dP]DWLTWSC-NH2
# modifications: linker 1-10 via mXylylene
# notes: also called DOTA-APAc-[Cys(3MeBn)-Glu-pro-Asp-Trp-Leu-Thr-Trp-Ser-Cys]-NH2
# B10: 3BP-3730 (peptide)
# peptide: {Propanoyl(3-OH)}-YCE[dP]DWLTWSC-NH2
# modifications: linker 2-11 via 3MeBn
# notes: also called 3OHPr-Tyr-[Cys(3MeBn)-Glu-pro-Asp-Trp-Leu-Thr-Trp-Ser-Cys]-NH2
# B11: 3BP-3729 (peptide)
# peptide: Ac-YCE[dP]DWLTWSC-NH2
# modifications: linker 2-11 via 3MeBn
# notes: also called Ac-Tyr-[Cys(3MeBn)-Glu-pro-Asp-Trp-Leu-Thr-Trp-Ser-Cys]-NH2
# B12: 3BP-3569 (peptide)
# peptide: Isovaleryl-YCE[dP]DWLTWSC-NH2
# modifications: linker 2-11 via mXylylene
# SMILES: CC(C)CC(=O)N[C@@H](Cc1ccc(O)cc1)C(=O)N[C@H]1CSCc2cccc(c2)CSC[C@@H](C(N)=O)NC(=O)[C@H](CO)NC(=O)[C@H](Cc2c[nH]c3ccccc23)NC(=O)[C@H]([C@@H](C)O)NC(=O)[C@H](CC(C)C)NC(=O)[C@H](Cc2c[nH]c3ccccc23)NC(=O)[C@H](CC(=O)O)NC(=O)[C@H]2CCCN2C(=O)[C@H](CCC(=O)O)NC1=O
# notes: also called Iva-Tyr-[Cys(3MeBn)-Glu-pro-Asp-Trp-Leu-Thr-Trp-Ser-Cys]-NH2
# B13: 3BP-3842 (peptide)
# peptide: {Propanoyl(3-OH)}-YCE[dP]DWLTWE([Apr-DOTA])C-NH2
# modifications: linker 2-11 via mXylylene; reading uncertain
# notes: also called 3OHPr-Tyr-[Cys(3MeBn)-Glu-pro-Asp-Trp-Leu-Thr-Trp-Glu(NH-Apr-DOTA′)-Cys]-NH2
# B14: 3BP-3742 (peptide)
# peptide: Isovaleryl-FCE[dP]DWLTWE([Apr-AEEA-DOTA])C-NH2
# modifications: linker 2-11 via 3MeBn; reading uncertain
# notes: also called Iva-Phe-[Cys(3MeBn)-Glu-pro-Asp-Trp-Leu-Thr-Trp-Glu(NH-Apr-O2Oc-DOTA′)-Cys]-NH2
# B15: 3BP-3728 (peptide)
# peptide: Isovaleryl-ECE[dP]DWLTWSC-NH2
# modifications: linker 2-11 via 3MeBn
# notes: also called Iva-Glu-[Cys(3MeBn)-Glu-pro-Asp-Trp-Leu-Thr-Trp-Ser-Cys]-NH2
# B16: 3BP-3841 (peptide)
# peptide: Ac-YCE[dP]DWLTWE([Apr-DOTA])C-NH2
# modifications: linker 2-11 via 3MeBn; reading uncertain
# notes: also called Ac-Tyr-[Cys(3MeBn)-Glu-pro-Asp-Trp-Leu-Thr-Trp-Glu(NH-Apr-DOTA′)-Cys]-NH2
# B17: 3BP-3727 (peptide)
# peptide: Isovaleryl-DCE[dP]DWLTWSC-NH2
# modifications: linker 2-11 via 3MeBn
# notes: also called Iva-Asp-[Cys(3MeBn)-Glu-pro-Asp-Trp-Leu-Thr-Trp-Ser-Cys]-NH2
# B18: 3BP-3743 (peptide)
# peptide: Isovaleryl-SCE[dP]DWLTWE([Apr-AEEA-DOTA])C-NH2
# modifications: linker 2-11 via 3MeBn; reading uncertain
# notes: also called Iva-Ser-[Cys(3MeBn)-Glu-pro-Asp-Trp-Leu-Thr-Trp-Glu(NH-Apr-O2Oc-DOTA′)-Cys]-NH2
# B19: 3BP-3740 (peptide)
# peptide: Isovaleryl-YCE[dP]DWLTWE([Apr-AEEA-DOTA])C-NH2
# modifications: linker 2-11 via 3MeBn; reading uncertain
# notes: also called Iva-Tyr-[Cys(3MeBn)-Glu-pro-Asp-Trp-Leu-Thr-Trp-Glu(NH-Apr-O2Oc-DOTA′)-Cys]-NH2
# B20: 3BP-3585 (peptide)
# peptide: {DOTA-APAc}-VYCE[dP]DW[Thp]TWSC-NH2
# modifications: linker 3-12 via mXylylene; reading uncertain
# notes: also called DOTA-APAc-Val-Tyr-[Cys(3MeBn)-Glu-pro-Asp-Trp-Thp-Thr-Trp-Ser-Cys]-NH2
# B21: 3BP-3584 (peptide)
# peptide: {DOTA-APAc}-VYCE[dP]DW[Ac6c]TWSC-NH2
# modifications: linker 3-12 via mXylylene; reading uncertain
# notes: also called DOTA-APAc-Val-Tyr-[Cys(3MeBn)-Glu-pro-Asp-Trp-Egz-Thr-Trp-Ser-Cys]-NH2
# Biological target: human carbonic anhydrase 9 (CAIX) (human, UniProt Q16790 38-459)
# Experiment: FACS competition on HT-29 cells against tracer 3BP-2776; pIC50 category A = pIC50 >8.0
binder,measurement,value
B1,pIC50,> 8 pic50
B2,pIC50,> 8 pic50
B3,pIC50,> 8 pic50
B4,pIC50,> 8 pic50
B5,pIC50,> 8 pic50
B6,pIC50,> 8 pic50
B7,pIC50,> 8 pic50
B8,pIC50,> 8 pic50
B9,pIC50,> 8 pic50
B10,pIC50,> 8 pic50
B11,pIC50,> 8 pic50
B12,pIC50,> 8 pic50
B13,pIC50,> 8 pic50
B14,pIC50,> 8 pic50
B15,pIC50,> 8 pic50
B16,pIC50,> 8 pic50
B17,pIC50,> 8 pic50
B18,pIC50,> 8 pic50
B19,pIC50,> 8 pic50
B20,pIC50,> 8 pic50
B21,pIC50,> 8 pic50

# Source: patent US20250339569A1 (3B PHARMACEUTICALS, published 2025)
